Key:
[1] = target: T1, Bz-Ala-Ala-Tyr-Arg-His-Ala-Gly
T1 chain: AAYRHAG

[2] = target: N-alpha-benzoylated peptides of SEQ ID NOs: 3-19

B1: trypsin variant Tn K60E, E151H, N143H, D189K (protein)
chain: IVGGYTCQENSVPYQVSLNSGYHFCGGSLINDQWVVSAAHCYESRIQVRLGEHNINVLEGNEQFVNAAKIIKHPNFDRKTLNNDIMLIKLSSPVKLNARVATVALPSSCAPAGTQCLISGWGHTLSSGVNHPDLLQCLDAPLLPQADCEASYPGKITDNMVCVGFLEGGKKSCQGDSGGPVVCNGELQGIVSWGYGCALPDNPGVYTKVCNYVDWIQDTIAAN
yield of the transamidation product with Arg-His-Ala-Lys(6-CF)-OH (HPLC) [1]: obtained in a yield of >99% | rate of reaction (initial rate of peptide consumption, HPLC) [2]: has a strong preference for a cleavage site comprising L, F or Y in position P1, R or K in position P1′ and His in position P2′

Source: patent US20080064079
